Measured values published in the supplement of paper PMC10065799, “High-throughput profiling of sequence recognition by tyrosine kinases and SH2 domains using bacterial peptide display” (eLife, 2023).

What was measured:
AncSZ = assay: phosphorylation enrichment, bacterial display (enrichment ratio); higher = better substrate or ligand; peptides without Tyr show the background
EPHB1 = EPHB1 (UniProt P54762); assay: as above
EPHB2 = EPHB2 (UniProt P29323); assay: as above
FGFR1 = FGFR1 (UniProt P11362); assay: as above
FGFR1, sequence (P11362 whole entry, looked up): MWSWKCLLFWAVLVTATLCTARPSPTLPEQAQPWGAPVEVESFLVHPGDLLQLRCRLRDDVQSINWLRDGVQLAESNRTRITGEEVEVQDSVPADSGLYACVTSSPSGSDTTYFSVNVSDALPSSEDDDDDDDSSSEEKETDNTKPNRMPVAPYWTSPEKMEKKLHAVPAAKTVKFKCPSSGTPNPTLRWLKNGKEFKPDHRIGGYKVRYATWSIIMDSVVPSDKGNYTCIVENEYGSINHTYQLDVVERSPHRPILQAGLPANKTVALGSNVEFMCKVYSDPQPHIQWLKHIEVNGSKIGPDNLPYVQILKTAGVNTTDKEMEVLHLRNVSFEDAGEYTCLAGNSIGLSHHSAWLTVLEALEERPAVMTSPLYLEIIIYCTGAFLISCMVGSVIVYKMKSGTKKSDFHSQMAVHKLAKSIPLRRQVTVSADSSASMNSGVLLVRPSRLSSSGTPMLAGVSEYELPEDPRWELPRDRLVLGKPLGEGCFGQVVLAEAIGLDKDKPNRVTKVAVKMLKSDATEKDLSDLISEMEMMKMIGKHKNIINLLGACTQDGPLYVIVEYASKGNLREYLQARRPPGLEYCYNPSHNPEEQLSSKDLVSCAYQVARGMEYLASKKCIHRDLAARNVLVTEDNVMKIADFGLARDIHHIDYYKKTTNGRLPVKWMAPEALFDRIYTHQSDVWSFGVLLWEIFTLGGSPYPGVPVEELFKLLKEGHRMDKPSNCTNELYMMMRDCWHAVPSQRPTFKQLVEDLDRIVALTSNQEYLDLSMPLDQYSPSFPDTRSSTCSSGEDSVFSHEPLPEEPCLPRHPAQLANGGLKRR

FGFR3 = FGFR3 (UniProt P22607); assay: as above
FGFR3, sequence (P22607 whole entry, looked up): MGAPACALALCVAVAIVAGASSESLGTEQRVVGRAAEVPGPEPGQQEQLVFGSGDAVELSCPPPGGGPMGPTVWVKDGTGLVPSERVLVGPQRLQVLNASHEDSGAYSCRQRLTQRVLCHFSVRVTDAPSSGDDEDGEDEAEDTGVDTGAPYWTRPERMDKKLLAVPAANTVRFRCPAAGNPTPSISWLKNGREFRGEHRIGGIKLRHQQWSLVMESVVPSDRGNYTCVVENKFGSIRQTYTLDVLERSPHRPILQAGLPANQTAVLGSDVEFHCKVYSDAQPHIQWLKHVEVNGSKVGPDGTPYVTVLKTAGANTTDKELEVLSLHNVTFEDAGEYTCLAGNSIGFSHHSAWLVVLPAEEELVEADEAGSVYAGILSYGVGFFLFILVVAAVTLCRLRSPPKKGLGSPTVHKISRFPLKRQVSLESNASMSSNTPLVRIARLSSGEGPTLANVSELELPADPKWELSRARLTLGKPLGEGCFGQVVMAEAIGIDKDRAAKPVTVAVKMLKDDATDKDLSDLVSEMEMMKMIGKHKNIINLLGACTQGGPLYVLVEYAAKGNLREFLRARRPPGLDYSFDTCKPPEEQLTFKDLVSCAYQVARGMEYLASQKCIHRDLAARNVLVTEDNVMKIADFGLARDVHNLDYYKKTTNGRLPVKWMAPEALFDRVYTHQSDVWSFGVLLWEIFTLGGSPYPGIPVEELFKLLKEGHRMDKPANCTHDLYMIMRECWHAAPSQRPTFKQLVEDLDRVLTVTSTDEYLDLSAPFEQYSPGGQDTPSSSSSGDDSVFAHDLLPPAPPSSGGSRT

Fer (mouse) = assay: as above
Fes = Fes (UniProt P07332); assay: as above
Fyn = Fyn (UniProt P06241); assay: as above
Fyn, sequence (P06241 whole entry, looked up): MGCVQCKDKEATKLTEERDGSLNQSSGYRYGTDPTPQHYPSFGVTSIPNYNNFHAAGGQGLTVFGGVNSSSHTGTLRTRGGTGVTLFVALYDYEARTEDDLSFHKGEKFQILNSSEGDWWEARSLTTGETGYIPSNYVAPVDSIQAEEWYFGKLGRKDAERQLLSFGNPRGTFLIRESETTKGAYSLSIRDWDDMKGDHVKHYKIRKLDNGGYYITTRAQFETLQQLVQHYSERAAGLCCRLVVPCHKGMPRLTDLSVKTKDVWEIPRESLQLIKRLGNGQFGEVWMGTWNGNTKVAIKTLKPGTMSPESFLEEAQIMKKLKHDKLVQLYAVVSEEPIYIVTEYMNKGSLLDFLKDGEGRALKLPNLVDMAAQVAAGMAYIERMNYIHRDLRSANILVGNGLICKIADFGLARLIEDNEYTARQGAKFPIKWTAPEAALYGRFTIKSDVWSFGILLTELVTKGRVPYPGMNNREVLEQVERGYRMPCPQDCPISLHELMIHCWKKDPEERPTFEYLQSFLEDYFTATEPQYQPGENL

Hck = Hck (UniProt P08631); assay: as above
Hck, sequence (P08631 whole entry, looked up): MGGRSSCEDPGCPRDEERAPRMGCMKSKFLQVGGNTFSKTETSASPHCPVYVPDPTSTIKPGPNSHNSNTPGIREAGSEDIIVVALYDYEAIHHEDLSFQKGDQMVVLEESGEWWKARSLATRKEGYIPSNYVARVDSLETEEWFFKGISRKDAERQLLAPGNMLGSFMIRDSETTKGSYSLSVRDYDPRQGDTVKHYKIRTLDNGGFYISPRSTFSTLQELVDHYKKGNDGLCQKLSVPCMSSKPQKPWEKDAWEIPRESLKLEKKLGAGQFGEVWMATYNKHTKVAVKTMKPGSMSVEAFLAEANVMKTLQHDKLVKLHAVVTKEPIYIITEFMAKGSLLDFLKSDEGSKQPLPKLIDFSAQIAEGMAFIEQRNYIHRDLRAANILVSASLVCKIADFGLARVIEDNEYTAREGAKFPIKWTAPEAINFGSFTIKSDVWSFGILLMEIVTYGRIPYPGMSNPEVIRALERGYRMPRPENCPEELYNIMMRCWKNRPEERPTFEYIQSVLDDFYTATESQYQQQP

Jak2 = Jak2 (UniProt O60674); assay: as above
MERTK = MERTK (UniProt Q12866); assay: as above
c-Abl (mouse) = assay: as above
c-Src = assay: as above
Grb2 SH2 = Grb2 SH2 (UniProt P62993); assay: SH2 binding enrichment of the phosphorylated peptide, bacterial display (enrichment ratio); higher = better substrate or ligand; peptides without Tyr show the background
Grb2 SH2, sequence (P62993 whole entry, looked up): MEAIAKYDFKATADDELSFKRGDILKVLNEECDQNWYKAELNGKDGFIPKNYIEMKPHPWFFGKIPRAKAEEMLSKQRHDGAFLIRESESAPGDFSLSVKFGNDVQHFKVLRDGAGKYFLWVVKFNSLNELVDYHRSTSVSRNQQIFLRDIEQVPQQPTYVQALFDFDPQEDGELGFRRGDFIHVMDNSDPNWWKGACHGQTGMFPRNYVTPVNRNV

SHP2-C SH2 = assay: as above
c-Src SH2 = assay: as above
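Wherever SH2 binding enrichment of the phosphorylated peptide, bacterial display is given: peptide library displayed on the E. coli surface as eCPX fusions, selected cells deep-sequenced, score is each peptide's frequency after selection divided by its frequency in the input.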
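Wherever phosphorylation enrichment, bacterial display is given: 11-residue human phosphosite peptides and single-mutation variants displayed on the E. coli surface, counted by deep sequencing, each peptide's frequency after selection divided by its frequency in the unselected input library; frequency after pTyr selection over input frequency; kinase dosed for 20-30% of maximal phosphorylation in three min.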

EPHB2, sequence (P29323 whole entry, looked up): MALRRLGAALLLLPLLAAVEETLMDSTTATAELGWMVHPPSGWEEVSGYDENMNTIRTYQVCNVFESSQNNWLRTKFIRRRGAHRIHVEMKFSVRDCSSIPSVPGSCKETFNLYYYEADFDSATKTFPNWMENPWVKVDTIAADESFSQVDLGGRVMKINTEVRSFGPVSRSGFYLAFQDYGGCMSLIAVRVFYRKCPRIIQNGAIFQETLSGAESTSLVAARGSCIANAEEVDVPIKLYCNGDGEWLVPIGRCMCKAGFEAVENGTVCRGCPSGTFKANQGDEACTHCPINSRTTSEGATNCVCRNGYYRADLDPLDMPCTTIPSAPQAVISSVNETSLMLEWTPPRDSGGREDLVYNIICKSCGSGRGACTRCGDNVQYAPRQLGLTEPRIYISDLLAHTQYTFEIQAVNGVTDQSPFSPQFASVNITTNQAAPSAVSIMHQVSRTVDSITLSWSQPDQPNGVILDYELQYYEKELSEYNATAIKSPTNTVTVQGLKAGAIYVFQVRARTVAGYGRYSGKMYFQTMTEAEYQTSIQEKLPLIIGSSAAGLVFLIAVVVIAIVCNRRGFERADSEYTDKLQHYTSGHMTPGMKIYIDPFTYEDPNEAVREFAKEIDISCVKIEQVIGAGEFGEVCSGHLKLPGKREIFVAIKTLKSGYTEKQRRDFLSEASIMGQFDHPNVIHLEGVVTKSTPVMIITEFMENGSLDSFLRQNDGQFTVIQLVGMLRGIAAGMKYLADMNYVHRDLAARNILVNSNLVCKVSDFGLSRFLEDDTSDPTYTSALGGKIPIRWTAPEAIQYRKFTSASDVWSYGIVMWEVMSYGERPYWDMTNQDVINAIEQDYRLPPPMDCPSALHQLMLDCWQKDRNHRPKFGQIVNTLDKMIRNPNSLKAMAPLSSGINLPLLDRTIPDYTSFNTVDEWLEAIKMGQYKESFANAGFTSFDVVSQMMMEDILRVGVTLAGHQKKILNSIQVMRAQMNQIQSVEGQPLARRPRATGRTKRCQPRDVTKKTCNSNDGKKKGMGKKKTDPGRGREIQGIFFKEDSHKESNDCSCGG
EPHB1, sequence (P54762 whole entry, looked up): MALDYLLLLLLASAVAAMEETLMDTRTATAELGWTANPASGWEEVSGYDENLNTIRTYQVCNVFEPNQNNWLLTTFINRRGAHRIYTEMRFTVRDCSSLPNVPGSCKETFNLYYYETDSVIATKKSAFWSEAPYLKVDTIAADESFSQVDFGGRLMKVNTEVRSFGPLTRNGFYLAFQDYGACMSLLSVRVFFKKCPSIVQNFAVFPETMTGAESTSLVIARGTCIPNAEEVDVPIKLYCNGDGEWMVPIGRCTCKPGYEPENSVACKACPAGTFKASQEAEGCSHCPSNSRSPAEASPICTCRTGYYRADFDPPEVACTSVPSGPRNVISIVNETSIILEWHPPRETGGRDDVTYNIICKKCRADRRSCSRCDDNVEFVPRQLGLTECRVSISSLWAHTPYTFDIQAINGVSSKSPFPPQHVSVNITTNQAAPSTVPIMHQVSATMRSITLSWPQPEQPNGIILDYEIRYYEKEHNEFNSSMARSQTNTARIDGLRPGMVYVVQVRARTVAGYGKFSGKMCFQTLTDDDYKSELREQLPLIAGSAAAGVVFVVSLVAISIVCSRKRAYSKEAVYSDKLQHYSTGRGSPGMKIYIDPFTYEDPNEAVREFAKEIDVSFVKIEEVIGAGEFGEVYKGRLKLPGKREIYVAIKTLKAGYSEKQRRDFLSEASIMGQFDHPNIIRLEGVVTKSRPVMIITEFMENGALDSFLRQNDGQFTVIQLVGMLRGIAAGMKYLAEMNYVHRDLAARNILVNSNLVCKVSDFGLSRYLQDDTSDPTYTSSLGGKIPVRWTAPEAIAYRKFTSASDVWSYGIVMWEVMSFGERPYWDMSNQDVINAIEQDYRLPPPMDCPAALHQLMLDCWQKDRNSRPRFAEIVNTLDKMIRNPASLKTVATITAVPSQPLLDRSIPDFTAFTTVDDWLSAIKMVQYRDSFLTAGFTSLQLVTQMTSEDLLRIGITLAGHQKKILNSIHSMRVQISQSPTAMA

Row | Sequence | phosphorylation enrichment (AncSZ) | phosphorylation enrichment (EPHB1) | phosphorylation enrichment (EPHB2) | phosphorylation enrichment (FGFR1) | phosphorylation enrichment (FGFR3) | phosphorylation enrichment (Fer (mouse)) | phosphorylation enrichment (Fes) | phosphorylation enrichment (Fyn) | phosphorylation enrichment (Hck) | phosphorylation enrichment (Jak2) | phosphorylation enrichment (MERTK) | phosphorylation enrichment (c-Abl (mouse)) | phosphorylation enrichment (c-Src) | SH2 binding enrichment (Grb2 SH2) | SH2 binding enrichment (SHP2-C SH2) | SH2 binding enrichment (c-Src SH2)
1 | MEYLPYGSLRD [JAK2_Y934] | 1.45 | 2.63 | 1.41 | 1.15 | 1.02 | 1.25 | 1.26 | 4.56 | 5.07 | 1.41 | 0.511 | 1.02 | 4.9 | 0.723 | 1.19 | 0.498
2 | MGSYNYLGFAR [SPTLC2_Y178] | 0.831 | 2.42 | 0.949 | 1.3 | 1.04 | 0.707 | 1.05 | 0.758 | 2.99 | 2.89 | 6.56 | 0.956 | 1.1 | 0.804 | 3.37 | 2.54
3 | MHRRQYELLGG [GNAS_Y391_L388R] | 0.577 | 0.28 | 0.426 | 0.5 | 0.425 | 0.307 | 0.715 | 0.371 | 0.409 | 0.48 | 0.391 | 0.416 | 0.336 | 0.601 | 0.349 | 2.1
4 | MKKKTYAMGGG [GAN_Y424_I423T] | 0.705 | 0.857 | 1.09 | 0.653 | 0.531 | 0.567 | 0.862 | 0.428 | 0.908 | 0.865 | 0.578 | 0.761 | 1 | 0.728 | 0.233 | 0.438
5 | MKKMHYVDPDH [ST3GAL5_Y99] | 0.512 | 0.32 | 0.311 | 0.338 | 0.357 | 0.32 | 0.513 | 0.364 | 0.367 | 0.392 | 0.332 | 0.41 | 0.402 | 0.9 | 0.672 | 0.548
6 | MNLLGYRQVRS [CHST4_Y359_H361Q] | 0.693 | 0.439 | 0.448 | 0.399 | 0.614 | 0.359 | 0.72 | 0.468 | 0.45 | 0.566 | 0.438 | 0.679 | 0.411 | 0.686 | 0.481 | 0.515
7 | MSLRSYGSREG [APC_Y96] | 0.723 | 0.416 | 0.42 | 0.373 | 0.414 | 0.413 | 0.586 | 0.398 | 0.387 | 0.451 | 0.418 | 0.491 | 0.458 | 0.763 | 0.409 | 0.453
8 | MSNFAYVKREV [SCN1A_Y1694] | 0.729 | 0.457 | 0.437 | 0.447 | 0.61 | 0.419 | 0.986 | 0.418 | 0.552 | 0.651 | 0.471 | 0.516 | 0.388 | 0.797 | 0.7 | 0.466
9 | MTFVFYRENLR [NLRP14_Y443_YF] | 1.42 | 0.585 | 0.719 | 0.562 | 0.927 | 0.576 | 1.34 | 0.48 | 0.525 | 1.13 | 0.369 | 0.668 | 0.288 | 1.34 | 1.14 | 0.716
10 | MTKEQYIKMNQ [ARFGEF2_Y797_R802Q] | 0.662 | 0.38 | 0.575 | 0.687 | 0.637 | 0.399 | 0.805 | 0.347 | 0.443 | 0.706 | 0.381 | 0.665 | 0.341 | 0.968 | 0.487 | 0.517
11 | MVTSGYKAKTI [EFR3A_Y447] | 0.413 | 0.337 | 0.312 | 0.299 | 0.375 | 0.314 | 0.458 | 0.361 | 0.322 | 0.364 | 0.377 | 0.42 | 0.292 | 0.748 | 0.744 | 0.44
12 | NFADPYRQLPF [CTNND2_Y503_Q507P_YF] | 0.732 | 0.432 | 0.58 | 0.661 | 0.652 | 0.46 | 0.728 | 0.587 | 0.659 | 0.62 | 0.417 | 0.638 | 0.642 | 0.728 | 0.817 | 0.612
13 | NFAKMYCNPDA [KNL1_Y489_YF] | 0.942 | 0.502 | 0.706 | 0.569 | 0.636 | 0.517 | 1.02 | 0.569 | 0.572 | 0.766 | 0.536 | 0.836 | 0.538 | 0.789 | 0.633 | 2.03
14 | NFDRIYIYHLR [MYOF_Y1137_V1136I] | 1.17 | 0.701 | 0.648 | 0.548 | 0.787 | 0.611 | 1.2 | 0.732 | 0.742 | 1.1 | 0.63 | 0.734 | 0.923 | 1.39 | 6.21 | 1.03
15 | NFFDTYIKTCL [IQGAP2_Y1445_YF] | 1.3 | 0.736 | 0.731 | 0.508 | 0.815 | 0.555 | 1.34 | 0.456 | 0.587 | 1.34 | 0.496 | 0.843 | 0.54 | 0.85 | 0.752 | 0.528
16 | NHFKIYNPCAE [PTEN_Y68_L70P_YF] | 0.816 | 0.494 | 0.518 | 0.458 | 0.676 | 0.442 | 0.996 | 0.564 | 0.56 | 0.807 | 0.452 | 0.809 | 0.474 | 0.901 | 0.798 | 0.752
